The text below walks through data of patent US20160206764A1 (ONCOINVENT, published 2016).

A word on the Kd: it is a measure of binding affinity in units of concentration. Read a high Kd as a looser complex.

The target in assay [1] is CD146 (melanoma cell adhesion molecule (MCAM), cell surface glycoprotein MUC18), endogenous on human tumor cell lines (human) (UniProt P43121). Kind of assay: MelJRpost3.3 cells pre-treated with OJ97cMUC18; competitor/tracer ^125I-OI-3.
In assay [2] the target is T1, CD146 (melanoma cell adhesion molecule (MCAM), cell surface glycoprotein MUC18), endogenous on human tumor … (human, UniProt P43121 24-646).
T1 construct: whole, on cells; Also used here for the endogenous protein in lysates and tissue sections of these cells (Western blot, immunoprecipitation, IHC); also called Mel-CAM
The experiment in a line: saturation binding of ^125I-OI-3 to Mel 3.3 melanoma cells, interpolation of binding plot at half βmax.

Assay [3] deals with T1, CD146 (melanoma cell adhesion molecule …). The experiment in a line: saturation binding of ^125I-OI-3 to Mel 3.3 melanoma cells, Ka=1/Kd.
Assay [4] has the same target. Kind of assay: saturation binding of ^125I-OI-3 to Mel 3.3 melanoma cells, Scatchard plot.

Take “commercial murine monoclonal anti-CD146 (OJ79c MUC18) (antibody)”: the specific binding in % of ^125I-OI-3 after pre-treatment (no pretreatment = 100%) in assay [1] is 101%.

B1: OI-3 murine monoclonal antibody (antibody, V domains shown)
VH: EVQLQQSGPELVKTGASVKISCKASGYSFTGYYIHWVKQSHGKSLEWIGYISNYNGATTYSQEFKGKATFTVDRSSRIAYMQFTGLTSEDSAVYYCAGNSWGDWYFDVWGAGTTVTVSS
VL: DVVMTQTPLSLPVSLGDQASISCRSSQSLVHSNGNTYLHWYLQKPGQSPKLLIYKVSNRFSGVPDRFSGSGSGTDFTLKISRVEAEDLGVYFCSQSTHVSTFGGGTKLEIK
notes: also called ^177Lu-OI-3
As for B1, the Kd in assay [2] is 3.1 nM; in assay [4], around 3.1 nM. In addition, the Ka in assay [3] was around 3.2e+08 M⁻¹.
